Data published in US5556780A, “CDNAS encoding mouse and rat type-2 angiotensin II receptors and their expression in host cells” (The Board of Trustees for the Leland Stanford Junior …, priority 1993, dated 1996).
Changes are numbered by the printed parent chain. Blank lines part the entries; values can stand above or below the molecule they belong to.

Columns and labels:
rat AT2 receptor = target: T1, rat AT2 receptor (Rattus norvegicus, UniProt P35351); assay: Radioligand binding / displacement of 125I-CGP42112A on membranes of pMRAT2-transfected COS-7 cells; conditions: for order of inhibition potency (competition profiles): displacement of 125I-CGP42112A
T1 construct: pMRAT2, a rat AT2 receptor full-length cDNA cloned into the expression vector pcDNA I; expressed in transfected cells; host or cells: COS-7 (transient)
T1 sequence (P35351 1-363): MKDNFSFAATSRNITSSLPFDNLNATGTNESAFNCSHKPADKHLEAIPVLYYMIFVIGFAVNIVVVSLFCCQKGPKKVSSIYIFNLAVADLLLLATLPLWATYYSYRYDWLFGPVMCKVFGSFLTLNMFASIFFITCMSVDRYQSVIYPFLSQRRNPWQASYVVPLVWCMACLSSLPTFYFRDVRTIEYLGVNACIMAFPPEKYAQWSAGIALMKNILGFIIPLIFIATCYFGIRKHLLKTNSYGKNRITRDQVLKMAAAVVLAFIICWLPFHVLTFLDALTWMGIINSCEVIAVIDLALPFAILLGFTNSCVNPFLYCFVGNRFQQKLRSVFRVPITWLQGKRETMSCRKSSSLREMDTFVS
Procedure: cDNA prepared from size-fractionated (>1 kb) poly(A)^+ RNA (Sprague-Dawley whole rat fetus, 18 days postcoitum) was ligated into an expression vector pcDNAI (Invitrogen), and amplified in 900 pools of 1,000 clones. […] Sequencing of both strands of clone pMRAT2 was done by the dideoxy chain termination method with Sequenase (USB).
2 h after incubation at room temperature, bound and free ligands were separated with GF/C filters (Whatman). […] Each experiment was carried out at least twice in duplicate, and the results shown here represent one experiment.

mouse AT2 receptor = target: T2, mouse AT2 receptor (Mus musculus, UniProt P35374); assay: [125I]CGP42112A binding / displacement on membranes of COS-7 cells transfected with mouse AT2 receptor cDNA (MC5); conditions: 0.2 nM [125I]CGP42112A
T2 construct: expressed in transfected cells; host or cells: COS-7
T2 sequence (P35374 1-363): T1 sequence (P35351 1-363) with L18R, A40S, V88L, S352G
Excerpt: Materials. […] Louis, Mo.). […] Expression in COS-7 Cells and Ligand Binding Assay. […] The transfected cells were harvested and homogenized. The 100,000×g pellet of this homogenate was suspended and used as a membrane fraction.

mouse AT1b receptor [1] = assay: Emulsion autoradiography of 125I-[Sar1,Ile8]-Ang II binding to transfected COS-7 cells (positive control); conditions: 1 uM DuP753; 200 pM radioligand, 2 h, room temperature
Procedure: cDNA prepared from size-fractionated (>1 kb) poly(A)^+ RNA (Sprague-Dawley whole rat fetus, 18 days postcoitum) was ligated into an expression vector pcDNAI (Invitrogen), and amplified in 900 pools of 1,000 clones. Plasmid DNA prepared from every 8 pools by the alkali lysis method was transfected over 2-3 h using DEAE-dextran/chloroquine into COS-7 cells grown on glass chamber slides (Nunc) (Mathews, L. S. & Vale, W. W. Cell 65, 973-982 (1991)). […] Cells were then washed four times with cold 50 mM Tris-HCl, pH 7.4, fixed with 0.1% glutaraldehyde at 4 C and subjected to emulsion autoradiography (Mathews, L. S. & Vale, W. W. Cell 65, 973-982 (1991)). […] Positive pool (RF904) which gave 20 DuP753-resistant positive cells was divided into subpools and rescreened, and after three rounds of screening a single clone pMRAT2 was isolated. Sequencing of both strands of clone pMRAT2 was done by the dideoxy chain termination method with Sequenase (USB).

cloned AT2 receptor [2] = assay: Intracellular IP3 levels in AT2-transfected COS-7 cells (radioreceptor assay); format: cell-based, rat; conditions: 1 uM Ang II, 15 sec, 37 C
Procedure: (§1) Intracellular IP3 levels were measured using radioreceptor assay (NEN). […] Cell fluorescence was measured with excitation at 340 nm and 380 nm. Ionomycin (10 uM) and EGTA (10 mM) were used for calibration.

cloned AT2 receptor [3] = assay: Intracellular calcium (fura-2) in AT2-transfected COS-7 cells; format: cell-based, rat; conditions: 1 uM Ang II
Procedure: as §1

[4] = target: rat AT2 receptor (angiotensin II type 2 receptor), clone pMRAT2 (rat); assay: radioligand binding with DTT, membranes of COS-7 cells transfected with pMRAT2
[5] = target: rat AT2 receptor (angiotensin II type 2 receptor), clone pMRAT2 (rat); assay: radioligand saturation binding, crude membranes of COS-7 cells transiently transfected with pMRAT2
[6] = target: rat AT2 receptor (angiotensin II type 2 receptor), clone pMRAT2 (rat); assay: radioligand saturation binding, crude membranes of S293RAT2 cells (293 cells stably transfected with pMRAT2)
[7] = target: mouse AT2 receptor (angiotensin II type 2 receptor), clone MC5 (mouse); assay: radioligand saturation binding with Scatchard plot, membrane fraction of COS-7 cells transfected with mouse AT2 receptor cDNA
mouse AT1b receptor [8] = target: mouse AT1b receptor (mouse, UniProt P29755); assay: emulsion autoradiography of COS-7 cells transfected with the mouse AT1b receptor clone, 200 pM radioligand
[9] = target: T3, rat AT2 receptor (angiotensin II type 2 receptor), clone pMRAT2 (rat); assay: expression cloning: emulsion autoradiography of transfected COS-7 cells, 200 pM radioligand with or without DuP753
T3 chain: T1 sequence (P35351 1-363)
Procedure: cDNA prepared from size-fractionated (>1 kb) poly(A)^+ RNA (Sprague-Dawley whole rat fetus, 18 days postcoitum) was ligated into an expression vector pcDNAI (Invitrogen), and amplified in 900 pools of 1,000 clones. Plasmid DNA prepared from every 8 pools by the alkali lysis method was transfected over 2–3 h using DEAE-dextran/chloroquine into COS-7 cells grown on glass chamber slides (Nunc) (Mathews, L. S. & Vale, W. W. Cell 65, 973–982 (1991)). […] Cells were then washed four times with cold 50 mM Tris-HCl, pH 7.4, fixed with 0.1% glutaraldehyde at 4 C and subjected to emulsion autoradiography (Mathews, L. S. & Vale, W. W. Cell 65, 973–982 (1991)). […] Sequencing of both strands of clone pMRAT2 was done by the dideoxy chain termination method with Sequenase (USB).

Molecule: Cc1cc(Cn2cnc3c2C[C@@H](C(=O)O)N(C(=O)C(c2ccccc2)c2ccccc2)C3)ccc1N(C)C [PD123319]
- order of inhibition potency (competition profiles) (rat AT2 receptor; 150 pM radioligand): [Sar^1,Ile^8 ]-Ang II=CGP42112A≥Ang II>PD123319^10,15 >Ang I
- rank order of competition of [125I]CGP42112A binding (mouse AT2 receptor): [Sar^1,Ile^8 ]-Ang II=CGP42112A≥Ang II>PD123319>Ang I

Molecule: Ang I: Ang I, purchased from Sigma (DRVYIHPFHL)
- order of inhibition potency (competition profiles) (rat AT2 receptor; 150 pM radioligand): [Sar^1,Ile^8 ]-Ang II=CGP42112A≥Ang II>PD123319^10,15 >Ang I
- rank order of competition of [125I]CGP42112A binding (mouse AT2 receptor): [Sar^1,Ile^8 ]-Ang II=CGP42112A≥Ang II>PD123319>Ang I

Molecule: Ang II: Angiotensin II is an octapeptide hormone
- increase of IP3 (cloned AT2 receptor [2]): failed to increase
- increase of intracellular calcium (cloned AT2 receptor [3]): failed to increase

Molecule: Ang II: Angiotensin II is an octapeptide hormone (DRVYIHPF)
- rank order of competition of [125I]CGP42112A binding (mouse AT2 receptor): [Sar^1,Ile^8 ]-Ang II=CGP42112A≥Ang II>PD123319>Ang I

Molecule: CGP42112A (unlabelled) (ligand)
- increase of binding affinity by DTT [4]: 50 to 100%

Molecule: [Sar^1,Ile^8 ]-Ang II: a non-selective Ang II receptor antagonist
- order of inhibition potency (competition profiles) (rat AT2 receptor; 150 pM radioligand): [Sar^1,Ile^8 ]-Ang II=CGP42112A≥Ang II>PD123319^10,15 >Ang I
- rank order of competition of [125I]CGP42112A binding (mouse AT2 receptor): [Sar^1,Ile^8 ]-Ang II=CGP42112A≥Ang II>PD123319>Ang I

Second part, led by results:

- effect in competition (displacement of 125I-CGP42112A) (rat AT2 receptor; 150 pM radioligand): no effect
- competition of [125I]CGP42112A binding (mouse AT2 receptor; at a concentration up to 10^-5 M): virtually inactive
Molecule: CCCCc1nc(Cl)c(CO)n1Cc1ccc(-c2ccccc2-c2nn[nH]n2)cc1 [DuP753]
- effect on positive staining (125I-[Sar1,Ile8]-Ang II binding) (mouse AT1b receptor [1]): completely abolished

- increase of binding affinity by DTT (rat AT2 receptor; with DTT): 50-100%
Molecule: CGP42112A
- order of inhibition potency (competition profiles) (rat AT2 receptor; 150 pM radioligand): [Sar^1,Ile^8 ]-Ang II=CGP42112A≥Ang II>PD123319^10,15 >Ang I
- rank order of competition of [125I]CGP42112A binding (mouse AT2 receptor): [Sar^1,Ile^8 ]-Ang II=CGP42112A≥Ang II>PD123319>Ang I

- Kd [5]: 0.17 nM
- Kd [6]: 0.18 nM
- Kd [7]: 0.12 nM
Molecule: [^125 I]CGP42112A (ligand)

- binding result (mouse AT1b receptor [8]): binds
- binding result [9]: binds
B1: ^125 I-[Sar^1,Ile^8]-Ang II (peptide)
peptide: GRVYIHPI
modifications: Sar at position 1, Ile at position 8, 125I label, as printed ^125 I-[Sar^1,Ile^8]-Ang II
